Assay results taken from patent US20190284293A1 (Bristol-Myers Squibb, published 2019).
“And” between values parts separate entries of the source, which are not always exact repeats. Equal entries are not always repeated.

T1: N-hCD73-his (N-terminal domain of human CD73, residues 26-336, His tag) (human, UniProt P21589 26-336)
T1 sequence: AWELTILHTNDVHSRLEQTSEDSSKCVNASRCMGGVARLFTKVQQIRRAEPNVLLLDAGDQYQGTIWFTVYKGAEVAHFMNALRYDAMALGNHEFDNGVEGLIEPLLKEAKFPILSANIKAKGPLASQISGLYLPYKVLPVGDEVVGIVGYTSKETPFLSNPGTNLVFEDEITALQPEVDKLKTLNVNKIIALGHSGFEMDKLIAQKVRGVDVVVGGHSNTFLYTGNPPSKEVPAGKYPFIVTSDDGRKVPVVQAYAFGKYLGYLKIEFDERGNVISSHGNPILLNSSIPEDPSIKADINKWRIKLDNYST

T2: human CD73 on cells (human, UniProt P21589 27-549)
T2 sequence: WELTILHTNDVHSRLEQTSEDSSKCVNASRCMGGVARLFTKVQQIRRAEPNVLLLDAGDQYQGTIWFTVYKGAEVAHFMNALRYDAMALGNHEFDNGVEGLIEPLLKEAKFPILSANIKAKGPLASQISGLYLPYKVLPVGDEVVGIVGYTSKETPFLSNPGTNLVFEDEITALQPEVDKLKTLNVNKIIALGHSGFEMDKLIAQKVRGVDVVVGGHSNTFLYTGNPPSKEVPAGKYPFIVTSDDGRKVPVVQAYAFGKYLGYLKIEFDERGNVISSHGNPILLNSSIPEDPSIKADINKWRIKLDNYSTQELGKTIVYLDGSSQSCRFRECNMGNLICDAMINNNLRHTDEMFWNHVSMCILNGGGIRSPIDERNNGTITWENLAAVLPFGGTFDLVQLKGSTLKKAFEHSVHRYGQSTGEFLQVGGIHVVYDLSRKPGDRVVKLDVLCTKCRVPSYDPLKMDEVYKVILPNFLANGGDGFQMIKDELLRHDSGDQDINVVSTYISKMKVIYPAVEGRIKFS

T3: rhCD73 bound to his-tag magnet beads (human, UniProt P21589 27-547, limits assumed)
T3 sequence: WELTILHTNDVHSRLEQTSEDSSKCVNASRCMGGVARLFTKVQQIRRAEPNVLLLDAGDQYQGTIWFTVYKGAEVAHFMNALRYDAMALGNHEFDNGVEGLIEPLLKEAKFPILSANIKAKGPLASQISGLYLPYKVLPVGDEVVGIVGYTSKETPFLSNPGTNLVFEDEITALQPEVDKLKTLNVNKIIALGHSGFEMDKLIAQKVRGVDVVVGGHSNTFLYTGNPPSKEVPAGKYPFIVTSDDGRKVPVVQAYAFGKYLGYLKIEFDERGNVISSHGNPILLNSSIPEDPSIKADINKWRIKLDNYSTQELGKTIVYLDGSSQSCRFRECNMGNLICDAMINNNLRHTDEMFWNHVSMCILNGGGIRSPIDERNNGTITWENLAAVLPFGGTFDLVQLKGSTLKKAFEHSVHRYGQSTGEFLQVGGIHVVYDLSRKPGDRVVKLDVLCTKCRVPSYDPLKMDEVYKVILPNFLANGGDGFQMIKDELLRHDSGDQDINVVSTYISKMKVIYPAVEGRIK


Key:
[1] = target: T1, N-hCD73-his (N-terminal domain of human …); experiment: SPR, mAb captured on protein A
Protocol: For these experiments, protein A (Pierce) was immobilized to a density of 3000-4000 RU on flow cells 1-4 of a CM5 sensor chip (GE Healthcare) using standard ethyl(dimethylaminopropyl) carbodiimide (EDC)/N-hydroxysuccinimide […] chemistry, with ethanolamine blocking, in a running buffer of 0.01 M HEPES pH 7.4, 0.15 M NaCl, 3 mM EDTA, 0.005% v/v tween 20. […] The running buffer for the kinetic experiments was 10 mM sodium phosphate, 130 mM sodium chloride, 0.05% tween 20, pH 7.1. The surfaces were regenerated after each cycle using two 30 s pulses of 10 mM glycine pH 1.5 at a flow rate of 30 μl/min. Sensogram data was double-referenced and then fitted to a 1:1 Langmuir model using Biacore T100 evaluation software v2.0.4, to determine the association rate constant (ka), the dissociation rate constant (kd), and the equilibrium dissociation constant (KD).

human CD73 on cells [2] = target: T2, human CD73 on cells; experiment: cell-based or functional assay
human CD73 on cells [3] = target: T2, human CD73 on cells; experiment: cell-based or functional assay; remark: listed apart in the source
[4] = target: T3, rhCD73 bound to his-tag magnet beads; experiment: cell-based or functional assay
human CD73 on cells [5] = target: T2, human CD73 on cells; experiment: binding titration on Calu6 cells, average of 2-6 experiments
human CD73 on cells [6] = target: T2, human CD73 on cells; experiment: cell-based or functional assay; remark: listed apart in the source
[7] = target: T1, N-hCD73-his (N-terminal domain of human …); experiment: SPR

Row | Binder | Kd [1] | koff [1] | kon [1] | EC50 Calu6 inhibition (human CD73 on cells [2]) | IC50 (nM), cAMP HTRF assay, Calu-6 with HEK293/A2AR cells (human CD73 on cells [3]) | Ymax, cAMP HTRF assay (percent of 100 nM 11F11 control) (human CD73 on cells [3]) | EC50 (nM), inhibition of bead-bound human CD73 enzymatic activity [4] | EC50 (human CD73 on cells [5]) | Ymax, high-content internalization assay (percent of 100 nM 11F11) (human CD73 on cells [6]) | EC50 H292 inhibition (human CD73 on cells [2]) | EC50 SKMEL24 inhibition (human CD73 on cells [2]) | EC50 (nM), high-content internalization assay, Calu6, 2 h (human CD73 on cells [6]) | Kd [7]
1 | 11A6 (antibody, human IgG1, kappa, V domains shown, IgG1za; also called 11A6-1) VH: EVQLVESGGNLVQPGRSLRLSCAASGFTFDDYAMHWVRQAPGKGLEWVSGISWNNNDIGYADSVKGRFIISRDNAKNSLYLQMNSLRPEDTALYYCVKGYYVILTGLDYWGQGTPVTVSS VL: DIQMTQSPSSLSASVGDRVTITCRASQGISSWLAWYQQKPEKAPKSLIYAASSLQSGVPSRFSGSGSGTDFTLTISSLQPEDFATYYCQQYNSYPLTFGGGTKVEIKR | 140 nM | 0.0076 s⁻¹ | 55000 M⁻¹ s⁻¹ | 2.21 nM | 4.87 nM | 84% | 3.12 nM | 1.93 nM |  |  |  |  | 
2 | 10D2 (antibody, human IgG4, kappa, V domains shown, also called 10D2-2) VH: QVQLVESGGGVVQPGRSLRLSCAASGFTFSNYGLHWVRQAPGKGLEWVAVIRYDGSNKYYADSVKGRFTISRDNSKNTLYLQMSSLRAEDTAVYYCARGGSSWYPDGLDVWGQGTTVTVSS VL: DIQMTQSPSSLSASVGDRVTITCRASQGISSWLAWYQQKPEKAPKSLIYAASSLQSGVPSRFSGSGSGTDFTLTISSLQPEDFATYYCQQYNSYPLTFGGGTKVEIKR | 1.6 nM | 0.00095 s⁻¹ | 610000 M⁻¹ s⁻¹ |  |  |  | 6.94 nM |  | 29% |  |  |  | 
3 | 7A11 (antibody, human IgG1, kappa, V domains shown, IgG1za; also called 7A11-1) VH: EVQLVESGGGLVQTGRSLRLSCAASGFTFDDYAMHWVRQAPGKGLEWVSDISWNSDIIGYADSVKGRFTISRDNAKNSLYLQMNSLRAEDTALYYCAKDIYGSGSSFFDYWGQGILVTVSS VL: DIQMTQSPSSLSASVGDRVTITCRASQYISSWLAWYQQKPEKAPKSLIYAASSLQSGVPSRFSGSGSGTDFTLTISSLQPEDFATYYCQQYHSYPPTFGQGTRLEIKR | 0.43 nM | 0.00038 s⁻¹ | 880000 M⁻¹ s⁻¹ | 0.95 nM | 0.95 nM | 45% | 2.86 nM | 0.35 nM | 50% | 1.31 nM | 3.72 nM | 2.59 nM | 
4 | 4C3 (antibody, human IgG1, kappa, V domains shown, IgG1za; also called 4C3-1) VH: EVQLVESGGGLVQPGRSLRLSCAASGFTFDDYAMHWVRQAPGKGLEWVSGISWKSGSIGYADSVKGRFTISRDNAKNSLYLQMNSLRAEDTALYYCVKGYYVILTGLDYWGQGTLVTVSS VL: not shown |  |  |  |  |  | 80% |  |  |  |  |  |  | 100 to 200 nM
5 | 24H2 (antibody, human IgG4, kappa, V domains shown, also called 24H2-1) VH: QVQLVESGGGVVQPGRSLRLSCAASGFTFSNYGMHWVRQAPGKGLEWVAVIWYDGGNKYYADSVKGRFTISRDNSKNTLFLQMNSLRAEDTAVYYCARGGSSWYPDAFDIWGQGTMVTVSS VL: DIQMTQSPSSLSASVGDRVTITCRASQGISSWLAWYQQKPEKAPKSLIYAASSLQSGVPSRFSGSGSGTDFTLTISSLQPEDFATYYCQQYNSYPLTFGGGTKVEIKR | 14 nM | 0.0032 s⁻¹ | 230000 M⁻¹ s⁻¹ |  |  |  | 4.18 nM |  | 51% |  |  | 8.2 nM | 
6 | 5F8 (antibody, human IgG1, kappa, V domains shown, IgG1za; VK2 also expressed; also called 5F8-1) VH: EVQLVESGGGLVQPGGSLRLSCAASGFTFSSYWMHWVRQAPGKGLVWVSRIISDGSSTGYADSVKGRFTISRDNAKNTLYLQMNSLRAEDTAVYYCAREFSSGWYFDYWGQGTLVTVSS VL: AIQLTQSPSSLSASVGDRVTITCRASQGISSALAWYQQKPGKAPKLLIYDASSLESGVPSRFSGSGSGTDFTLTISSLQPEDFATYYCQQFSSYPRTFGQGTKVEIKR | 41 nM | 0.006 s⁻¹ | 150000 M⁻¹ s⁻¹ | 8.1 nM | 13.2 nM | 80% | 5.76 nM | 11.7 nM |  | 13.5 nM | 110 nM |  | 
7 | 4D4 (antibody, human IgG2, kappa, IgG2; also called 4D4-1) heavy: QVQLVESGGGVVQPGRSLRLSCAASGFTFSNYGMHWVRQAPGKGLEWVAVIWYDESNKYYADSVKGRFTISRDNSKNTLFLQMNSLRAEDTAVYYCARGYNSRWYPDAFDIWGQGTMVTVSSASTKGPSVFPLAPCSRSTSESTAALGCLVKDYFPEPVTVSWNSGALTSGVHTFPAVLQSSGLYSLSSVVTVPSSNFGTQTYTCNVDHKPSNTKVDKTVERKCCVECPPCPAPPVAGPSVFLFPPKPKDTLMISRTPEVTCVVVDVSHEDPEVQFNWYVDGVEVHNAKTKPREEQFNSTFRVVSVLTVVHQDWLNGKEYKCKVSNKGLPAPIEKTISKTKGQPREPQVYTLPPSREEMTKNQVSLTCLVKGFYPSDIAVEWESNGQPENNYKTTPPMLDSDGSFFLYSKLTVDKSRWQQGNVFSCSVMHEALHNHYTQKSLSLSPGK light: not shown | 9.4 nM and 6.2 nM | 0.00077 s⁻¹ and 0.00049 s⁻¹ | 82000 M⁻¹ s⁻¹ and 79000 M⁻¹ s⁻¹ |  |  |  | 5.31 nM | 0.82 nM | 104% |  |  | 0.38 nM | ~5 nM
8 | CD73.11-IgG2-C219S (antibody, 4D4 variable regions; also called CD73.11-IgG2CS; mAb-CD73.11-Vh-hHC-IgG2-C219S) heavy: QVQLVESGGGVVQPGRSLRLSCAASGFTFSNYGMHWVRQAPGKGLEWVAVIWYDESNKYYADSVKGRFTISRDNSKNTLFLQMNSLRAEDTAVYYCARGYNSRWYPDAFDIWGQGTMVTVSSASTKGPSVFPLAPCSRSTSESTAALGCLVKDYFPEPVTVSWNSGALTSGVHTFPAVLQSSGLYSLSSVVTVPSSNFGTQTYTCNVDHKPSNTKVDKTVERKSCVECPPCPAPPVAGPSVFLFPPKPKDTLMISRTPEVTCVVVDVSHEDPEVQFNWYVDGVEVHNAKTKPREEQFNSTFRVVSVLTVVHQDWLNGKEYKCKVSNKGLPAPIEKTISKTKGQPREPQVYTLPPSREEMTKNQVSLTCLVKGFYPSDIAVEWESNGQPENNYKTTPPMLDSDGSFFLYSKLTVDKSRWQQGNVFSCSVMHEALHNHYTQKSLSLSPG light: not shown | 3.5 nM and 6.5 nM | 0.00028 s⁻¹ and 0.00051 s⁻¹ | 80000 M⁻¹ s⁻¹ and 79000 M⁻¹ s⁻¹ |  |  |  |  |  |  |  |  |  | ~5 nM
